Assay results: patent KR20230010676A

Target: SARS-CoV-2 스파이크 D19 (VSV 슈도바이러스) (SARS-CoV-2) (UniProt P0DTC2)
Experiment: cell-based or functional assay

S2E12-LS (antibody)
EC50 (neutralisation, interpolated): 1.4 ng/mL
EC90 (neutralisation, interpolated): 11.9 ng/mL
IC50 (neutralisation): 1.4 ng/mL
